Reference: the supplement of paper PMC9170038

Test system: MS2 coat protein
Test: apparent KD of MS2 coat protein; designed switch direction (-1 OFF switch, 1 ON switch): -1; higher = weaker reporter binding
Method in brief: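 Designed RNA switches with common flanks were made on Illumina chips by stalled E. coli RNA polymerase. Titration with SNAP-549-labelled MS2 coat protein doubled from 0.7 or 1.5 nM up to 3 µM. Apparent KD is each design's median over clusters after curve-fitting normalised fluorescence.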

[1] = Eterna round: R95, input ligand: microRNA oligo, concentration not stated
[2] = Eterna round: R95, input ligand: FMN 200 uM
[3] = Eterna round: R95, input ligand: none
[4] = input ligand: microRNA oligo, concentration not stated

Row | Sequence | apparent KD of MS2 coat protein (input ligand: FMN 200 uM) | apparent KD of MS2 coat protein (input ligand: none) | apparent KD of MS2 coat protein [1] | apparent KD of MS2 coat protein [2] | apparent KD of MS2 coat protein [3] | apparent KD of MS2 coat protein [4]
1 | CCAACGUGAGGAUAUGCAAUGCUAGCGGGAUCUUCUCUCCAACAUGAGGAUCACCCAUGUAGAAGGCGCUGUUG [Eternabot (L1) Solution 38] (Eterna round: R97, puzzle: Exclusion 2) | 198 nM | 97.1 nM | – | – | – | –
2 | CAGCCCUGAGGAUAUACAUGAGGAUCACCCAUGUGAAGAACGGGAAACGAAACCCUCAGUAGAAGGCGGGUCAU [Eternabot (Original) Solution 14] (Eterna round: R97, puzzle: Exclusion 3) | 131 nM | 58.9 nM | – | – | – | –
3 | GCCGAUUAAGUGAGGAUAUACCUAUGGAUACAUAGGUAGAAGGCACAUGAGGAUCACCCAUGUUCCUCAUCGGC [Fiskers BMX 4 - 11] (puzzle: Brourd's mod of Exclusion 4) | – | – | 19.3 nM | – | – | –
4 | CGUCUGUCAGGAUAUGGUUACAUAGACAUGAGGAUCACCCAUGUGACGUGGGACUAGUGAUUAGAAGGGACGAACG [EX5 #69] (Eterna round: R97, puzzle: Exclusion 5) | 36.5 nM | 31.7 nM | – | – | – | –
5 | UUUUACAGGCUUAGAUCCUACAUGAGGAUCACCCAUGUGGUCCGGUGACGUGAGUCACCGGACUAAGCUCGUCUUGU [JL TOV1 3.72] (Eterna round: R97, puzzle: Sensor, turn-off variant 1) | 156 nM | 143 nM | – | – | – | –
6 | AGCUUUGGAGGAUAUUGAGCGGAAAACAUGAGGAUCACCCAUGUAAGUGGGCGAAAUGUAUAAGAAGGCCGAAGGU [Eternabot (L2) Solution 15] (Eterna round: R97, puzzle: Exclusion 5) | 205 nM | 278 nM | – | – | – | –
7 | CUGAGCAGACGGAGAUCCAACAUGAGGAUCACCCAUGUCUCAAAAGCUUUUUGCUUGUCUUACCCUCCUCUGUUCUC [Isceeren] (puzzle: Sensor v3, turn-off variant 1) | – | – | 122 nM | 18.1 nM | 15.7 nM | –
8 | GAUCCUUCUGUUAGGAUAUGCUUUGGGCUUCCGCAGCAGAAGGAACAUGAGGAUCACCCAUGUCAAAUAAAAUC [salish99_bmex4_r4_501] (Eterna round: R97, puzzle: Brourd's mod of Exclusion 4) | 25.5 nM | 27.1 nM | – | – | – | –
9 | AAAGAACAUGAGGAUCACCCAUGUGAGGAUAUGUAAGGAUAGGACCGAAGAAGCGAGAACAGAAGGCACAGAGG [JR_Exclu1_Sub069] (puzzle: Exclusion 1) | – | – | 23.4 nM | 35 nM | 18.6 nM | –
10 | UUCCGGUGAGGAUAUUGCACGGUGGGAGAGAGCGCCACUGUCAAGAAGGUACAUGAGGAUCACCCAUGUGAGUA [Eternabot (L1) Solution 24] (Eterna round: R97, puzzle: Exclusion 4) | 21.1 nM | 25.1 nM | – | – | – | –
11 | UCUCGACAUGAGGAUCACCCAUGUCAGGAUAUUGUGUUUUGGGUUUUUUACCUUUUGGCAAGAAGGGAUGUGUG [LRO-Excl1-20] (puzzle: Exclusion 1) | – | – | 20.4 nM | – | – | –
12 | CGAUAAAGGUGAGGAUAUGAGAAUAGAAAGAAAUCAGAAGGCACACAUGAGGAUCACCCAUGUGAGUUCUUGAGAUUACAUGGU [Prohibition 44 - Jieux - Exclusion NG 1] (Eterna round: R96, puzzle: Exclusion NG 1) | – | – | – | – | – | 11 nM
13 | ACCUCUGAGGAGGAUAUACAGUGCGAAAGGACAGUAGAAGGCUUCACAUGAGGAUCACCCAUGUCGAAUAGUGA [EX6 #79] (Eterna round: R97, puzzle: Exclusion 6) | 86.1 nM | 58.7 nM | – | – | – | –
14 | GGCGGUGCAGGAUAUUGAAAACUACACAUGAGGAUCACCCAUGUUCCUCACCGGUACAAGCAAGAAGGGCGGUGCA [Erxegetiis] (puzzle: Exclusion 5) | – | – | 19.4 nM | 18.9 nM | 18.3 nM | –
15 | ACAAACAGCUGAGGAUAUCACGAGCAAGGCCAGUGAGAAGGUAGCUCAAACAUGAGGAUCACCCAUGUUAAACUUCCUCAUGCG [Raisorar] (Eterna round: R96, puzzle: Exclusion NG 1) | 13.7 nM | 17.7 nM | – | – | – | 10.4 nM
16 | CUAAAUCAUGUAGGAUAUGCGUGGCGAAGCUAUGCAGAAGGACAUGAGGAUCACCCAUGUGCUUCCGUCUGCGUACAGACGGAA [JL ENG1 1.17] (Eterna round: R96, puzzle: Exclusion NG 1) | 328 nM | 255 nM | – | – | – | 222 nM
17 | GAUUGACAUGAGGAUCACCCAUGUGAGGAUAUCGGCCGGACCUUGUUAGCUUCCAGCGCGAGAAGGCGCAUAGG [Exclusion 1 V36] (puzzle: Exclusion 1) | – | – | 28.6 nM | 58.9 nM | 43.4 nM | –
18 | AUAAAUCAUGUAGGAUAUGCGUGGCGAAGCUAUGCAGAAGGACAUGAGGAUCACCCAUGUUCUUCCGUCUGCGUACAGACGGAA [Mat - Exclusion NG 1 - Mod of JL - D39] (Eterna round: R96, puzzle: Exclusion NG 1) | 297 nM | 34.9 nM | – | – | – | 28.5 nM

Row | Sequence | apparent KD of MS2 coat protein (input ligand: FMN 200 uM) | apparent KD of MS2 coat protein (input ligand: none) | apparent KD of MS2 coat protein [1] | apparent KD of MS2 coat protein [2] | apparent KD of MS2 coat protein [3] | apparent KD of MS2 coat protein [4]
19 | CUGAGUAGAGGAUAUACAUGAGGAUCACCCAUGUAAAGUAGCUUGCGUACAGGCAGAUGUAGAAGGUUAUUCGG [Mod of JL 13 - Jieux - Exclusion 3] (Eterna round: R97, puzzle: Exclusion 3) | 53.1 nM | 50.9 nM | – | – | – | –
20 | CAAUUAAUUAAUUAAUAAUACAUGAGGAUCACCCAUGUAGAUCCUACAUACAAGCUUUGUAGCUCGUCUUAUAAUUA [Stov1/3-A3] (Eterna round: R97, puzzle: Sensor, turn-off variant 1) | 368 nM | 417 nM | – | – | – | –
21 | UAUAAACAUGAGGAUCACCCAUGUGAGGAUAUCAAAACCAGAGCGGAUCUCUGGCCCAUGAGAAGGUGCAUGGU [ElNandoxlusion 8 - Jieux - Exclusion 1] (Eterna round: R97, puzzle: Exclusion 1) | 137 nM | 26.2 nM | – | – | – | –
22 | AAAAGAUGAGGAUAUAUAUGGAAUCCAAGGCAUGUGCUCUCACAUGAGGAUCACCCAUGUAGAAGGCAUCUGCC [Laxetera] (puzzle: Exclusion 2) | – | – | 9.79 nM | – | – | –
23 | AUCACGGAUGUAAGGAUAUACAAAACCAUAAGGUAGUAGAAGGUACAUGAGGAUCACCCAUGUGCAUAUGUUUA [BmEX4 C.14] (Eterna round: R97, puzzle: Brourd's mod of Exclusion 4) | 18.5 nM | 16.2 nM | – | – | – | –
24 | GCUCGCGGGCAAGGAUAUCCUACGCUGUUCUGGUUCGUGUCUGUUACAUGAGGAUCACCCAUGUGGGAGAAGGUGCACCAGGGC [Design 48] (Eterna round: R96, puzzle: Exclusion NG 2) | 13.7 nM | 14.7 nM | – | – | – | 9.98 nM
25 | CUAAAAGUGAUCACAGGAACAUGAGGAUCACCCAUGUGCCUCAAGGAUAUGCACGGCUAUCCAGGGUAGAAGGUGAGAAUGCAC [Eternabot solution 30] (Eterna round: R96, puzzle: Exclusion NG 3) | 68.3 nM | 100 nM | – | – | – | 104 nM
26 | GUGUACAGAGGAUAUACAAUAGGAGUUACGAAAGUAACUUCACAUGAGGAUCACCCAUGUAGAAGGCUGUACAC [Dot plot directed v8] (puzzle: Exclusion 2) | – | – | 17.7 nM | – | – | –
27 | GAGUGACAUGAGGAUCACCCAUGUGAGGAUAUCGGACGGACCAAAUUAACAAUAGAAGCGAGAAGGCACAUAAG [Exclusion 1 V11] (puzzle: Exclusion 1) | – | – | 74.3 nM | 72.4 nM | 81.3 nM | –
28 | GGUACUAACACGAGAGUGUUAGUACUAUAAGCUUGUGUUACAUGAGGAUCACCCAUGUCCUCAUAGGCUCGUCUUAA [Mat - Sensor v3 - Turn-off var 2 - D81] (puzzle: Sensor v3, turn-off variant 2) | – | – | 61 nM | 82.4 nM | 82.4 nM | –
29 | CCCAUGUCAGGAUAUCUAAGAGAGGGCCAGCCCUCUCCUCCGGAGAAGGGACAUGAGGAUCACCCAUGUAAAAC [Biedle] (puzzle: Exclusion 4) | – | – | 93.3 nM | – | – | –
30 | UGCAUGUAAGGAUAUGCAACCUGCGCUCAUUAGCAGGUCAAGCAGAAGGUACAUGAGGAUCACCCAUGUGUCCG [Tebisoma] (Eterna round: R96, puzzle: Exclusion 4) | 462 nM | 31.6 nM | – | – | – | 25.2 nM
31 | UCCUGGCGAGGAUAUACAAAGAUUUUUUCGUUUUGUCUCGAACAUGAGGAUCACCCAUGUAGAAGGUGCUGCUG [JR_Ex2_Sub014] (Eterna round: R97, puzzle: Exclusion 2) | 50.3 nM | 52.2 nM | – | – | – | –
32 | AUAUACGGAGGAUAUACUUGAGGAUCACCCAAGUGGAGUCCCGUUUGGGCGGUAAAUAGUAGAAGGCCGACCCA [jl-ex3-4.43 ViennaUCT mod] (Eterna round: R97, puzzle: Exclusion 3) | 14.1 nM | 16.5 nM | – | – | – | –
33 | GGGCCCGGAGGAUAUACAUGAGGAUCACCCAUGUAGGGCCCGGGUAUUUUUGGGCCCUGUAGAAGGCCGGGCCC [-41.6, -38.7 kcal, A 19%, 5c,0] (Eterna round: R97, puzzle: Exclusion 3) | 13 nM | 12.6 nM | – | – | – | –
34 | UUUUACAUAGGAUAUAGUUUCUUUUACAUGAGGAUCACCCAUGUCUCUCCUCUCUCUCUUCUAGAAGGAUGUUUCU [JR_E5_Sub012] (puzzle: Exclusion 5) | – | – | 86.1 nM | – | – | –
35 | AUAAUGUGAGGAUAUCAGUCGACUAGCUUCGGCUAGUCGACUGAGAAGGCACAUGAGGAUCACCCAUGUAGAUC [E4/17-A1] (Eterna round: R97, puzzle: Exclusion 4) | 59 nM | 925 nM | – | – | – | –
